Laboratory results as given in the DeepSol protein solubility set.

Assay: soluble on expression in E. coli; label from the status in PepcDB or PDB records

Row | Sequence | soluble on expression in E. coli
1 | MGSDKIHHHHHHMIFFNKDEQLENIGNGILDATWAAFPTLARNQIALTWVVYDPPVRVNTGGALTPNAFWDHPVRGFTYRGVERIYPASVVKLFYLVAVNEWLEKGMSQTSKELERALRDMIVDSSNDATSLVVDILSGTTSGPELPTGPFETWKYQRNIVNRYYQSLGWEEMETINVCQKTWGDGPYGRERAFAGELLENRNMLTTNAIARLLHSIVGGVAVSSARSQAMMALLKRPLNDLPTDTEENQVTGFLGGGLPQNAQIWSKAGWTSQVRHDAAYIELPEQRPYLLVVFTEGKAQAKSQAILPFVSQQVADAISSL | not soluble
2 | AVSDQRLSEATLRELEDERQRAGLPEKPEIPEGWTIDRKPGVTHFTMRKSHGDEEIILQLTGEDRSNEEITRTLDVLVVNGGKALVFGMSVEDGEFVINNVCFRHDGKLALDTSAEAQFQKSQLYMGPDLADLEDHLVDSFTSYLSARGVNDTLANFIDQFSLWSEQADYEEWLSSINKFVS | soluble
3 | METGGGAPLTKSSEAVEGDFVEDRLRGNEAFRRGNYEAAASYYSEALEKIRLAKTELPTQDRYPWSLEEVLIRCNRALVFLRLASAAALPNVGSNRFEEDACTAEHESEEATPCSLWQRAAEDASVALDLITDFEDEGESERVTELRVKALYRRMVANKGQNNFADAAKDAEALAKIRPEYRSEAELLAQRAAAESERAKQEALQKLKEVGNSFLSLFGVSIDNFQTKRNPDGTYSVSYCPKS | not soluble
4 | MHHHHHHSSGVDLGTENLYFQSNAMKHIQINPSILSADLARLGDDVKAVLAAGADNIHFDVMDNHYVPNLTFGPMVLKALRDYGITAGMDVHLMVKPVDALIESFAKAGATSIVFHPEASEHIDRSLQLIKSFGIQAGLALNPATGIDCLKYVESNIDRVLIMSVNPGFGGQKFIPAMLDKAKEISKWISSTDRDILLEIDGGVNPYNIAEIAVCGVNAFVAGSAIFNSDSYKQTIDKMRDELNKV | soluble
5 | MGSDKIHHHHHHMKYTFNEEKAFDIVAIGRACIDLNAVEYNRPMEETMTFSKYVGGSPANIAIGSAKLGLKAGFIGKIPDDQHGRFIESYMRKTGVDTTQMIVDQDGHKAGLAFTEILSPEECSILMYRDDVADLYLEPSEVSEDYIANAKMLLVSGTALAKSPSREAVLKAVQYAKKHQVKVVFELDYRPYTWQSSDETAVYYSLVAEQSDIVIGTRDEFDVMENRTGGSNEESVNHLFGHSADLVVIKHGVEGSYAYSKSGEVFRAQAYKTKVLKTFGAGDSYASAFIYGLVSGKDIETALKYGSASASIVVSKHSSSEAMPTAEEIEQLIEAQS | not soluble
6 | EYYDVRGWDPHDRQVYTPIHEACYDRGGIFFAFFDDEQMIAAAALDTLPRGMNGELRQLLFFYVGAGKRGQGWGRRLFQYALHQLPEMGASGLYISSIPNKNTVDFYLAQG | not soluble
7 | ELVMTQSPLSLPVSLGDQASISCRPSQSLVHSNGNTYLHWYLQKPGQSPKLLIYRVSNRFSGVPDRFSGSGSGTAFTLKISRVEAEDLGVYFCSQGTHVPYTFGGGTKLELKRADAAPTVSIFPPSSEQLTSGGASVVCFLNNFYPKDINVKWKIDGSERQNGVLNSWTDQDSKDSTYSMSSTLTLTKDEYERHNSYTCEATHKTSTSPIVKSFNRNEC | soluble
8 | SRRLRTPLQDLTRAATSLAAGNSRIRVPAGGAGPEVATLAHAFNTMADRLEHTEQVRRQMLSDLAHEMGTPLSVLTAYLDGLQDGVVDWNNANHTIMADQLTRLTRLMEDIDYVSRAQEHRIDLDLAEEGLGD | not soluble
9 | MEGWQRAFVLHSRPWSETSLMLDVFTEESGRVRLVAKGARSKRSTLKGALQPFTPLLLRFGGRGEVKTLRSAEAVSLALPLSGITLYSGLYINELLSRVLEYETRFSELFFDYLHCIQSLAGVTGTPEPALRRFELALLGHLGYGVNFTHCAGSGEPVDDTMTYRYREEKGFIASVVIDNKTFTGRQLKALNAREFPDADTLRAAKRFTRMALKPYLGGKPLKSRELFRQFMPKRTVKTHYE | soluble
